Reference: the supplement of paper PMC7877785
± gives the uncertainty stated by the source.

Test: self-splicing fitness, log relative to wild type (ln ratio); higher = more splicing; Tetrahymena group I intron in knt gene, E. coli kanamycin selection, DiMSum; sequences stand for … in CUCUCU…GGAGGGAAAAGUUAUCAGGCAUGCACCUGGUAGCUAGUCUUUAAACCAAUAGAUUGCAUCGGUUUAAAAGGCAAGACCGUCAAAUUGCGGGAAAGGGGUCAACAGCCGUUCAGUACCAAGUCUCAGGGGAAACUUUGAGAUGGCCUUGCAAAGGGUAUGGUAAUAAGCUGACGGACAUGGUCCUAACCACGCAGCCAAGUCCUAAGUCAACAGAUCUUCUGUUGAUAUGGAUGCAGUUCACAGACUAAAUGUCGGUCGGGGAAGAUGUAUUCUUCUCAUAAGAUAUAGUCGGACCUCUCCUUAAUGGGAGCUAGCGGAUGAAGUGAUGCAACACUGGAGCCGCUGGGAACUAAUUUGUAUGCGAAAGUAUAUUGAUUAGUUUUGGAGUACUCGUGGUCG
Procedure, shortened: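 Pooled colonies went to amplicon sequencing on an Illumina HiSeq 2500 after six replicate transformations. The plates were LB agar with 100 μg/mL carbenicillin, 50 μM IPTG and 0.2% rhamnose, with or without 25 μg/mL kanamycin, incubated overnight at 37°C or 30°C. The E. coli BL21(DE3) library had all eight P1ex-region intron nucleotides randomised, the intron placed in the knt kanamycin-resistance gene on pET-22b(+). DiMSum fitness is the error-weighted combination of replicate fold changes, kanamycin against none, normalised to wild type.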

Question: For GCGUAGCAAUAUUACGUGUC, which “self-splicing fitness (ln)” value (30 °C) is on record?
Answer: -3.83 ± 0.27

Question: And the “self-splicing fitness (ln)” value (37 °C)?
Answer: -2.06 ± 0.14

Question: For GCUAAGCAAUAUUACGAAAU, which “self-splicing fitness (ln)” value (30 °C) is on record?
Answer: -1.64 ± 0.11

Question: And the “self-splicing fitness (ln)” value (37 °C)?
Answer: -0.218 ± 0.1

Question: Which results are given for GCUAAGCAAUAUUACGAACC?
Answer: self-splicing fitness (ln) (30 °C): -0.414 ± 0.15; self-splicing fitness (ln) (37 °C): 1.05 ± 0.23

Question: For GCUAAGCAAUAUUACGACGA, which “self-splicing fitness (ln)” value (30 °C) is on record?
Answer: -0.978 ± 0.088

Question: And the “self-splicing fitness (ln)” value (37 °C)?
Answer: -0.529 ± 0.1

Question: For GCUAAGCAAUAUUACGAGAU, which “self-splicing fitness (ln)” value (30 °C) is on record?
Answer: -2.3 ± 0.12

Question: And the “self-splicing fitness (ln)” value (37 °C)?
Answer: -1.51 ± 0.14

Question: What does the source list for GCUAAGCAAUAUUACGAGCG?
Answer: self-splicing fitness (ln) (30 °C): -1.7 ± 0.11; self-splicing fitness (ln) (37 °C): -0.246 ± 0.12

Question: For GCUAAGCAAUAUUACGAUAU, which “self-splicing fitness (ln)” value (30 °C) is on record?
Answer: -0.896 ± 0.066

Question: And the “self-splicing fitness (ln)” value (37 °C)?
Answer: -0.164 ± 0.094

Question: Which “self-splicing fitness (ln)” value (30 °C) does the source give for GCUAAGCAAUAUUACGCGAU here?
Answer: -2.05 ± 0.45

Question: And the “self-splicing fitness (ln)” value (37 °C)?
Answer: -0.565 ± 0.25

Question: Which “self-splicing fitness (ln)” value (30 °C) does the source give for GCUAAGCAAUAUUACGCUCA here?
Answer: -1 ± 0.11

Question: And the “self-splicing fitness (ln)” value (37 °C)?
Answer: -1.52 ± 0.14

Question: What does the source list for GCUAAGCAAUAUUACGGACG?
Answer: self-splicing fitness (ln) (30 °C): -0.941 ± 0.058; self-splicing fitness (ln) (37 °C): -0.51 ± 0.074

Question: What does the source list for GCUAAGCAAUAUUACGGAUC?
Answer: self-splicing fitness (ln) (30 °C): -0.406 ± 0.11; self-splicing fitness (ln) (37 °C): -0.265 ± 0.17

Question: For GCUAAGCAAUAUUACGGAUG, which “self-splicing fitness (ln)” value (30 °C) is on record?
Answer: -1.52 ± 0.081

Question: And the “self-splicing fitness (ln)” value (37 °C)?
Answer: -0.677 ± 0.12

Question: With GCUAAGCAAUAUUACGGCGG as the sequence, how does the “self-splicing fitness (ln)” value (30 °C) read?
Answer: -3.78 ± 0.12

Question: And the “self-splicing fitness (ln)” value (37 °C)?
Answer: -2.7 ± 0.15

Question: What does the source list for GCUAAGCAAUAUUACGGCUC?
Answer: self-splicing fitness (ln) (30 °C): -0.551 ± 0.092; self-splicing fitness (ln) (37 °C): -0.942 ± 0.098

Question: Which “self-splicing fitness (ln)” value (37 °C) does the source give for GCUAAGCAAUAUUACGGGCU here?
Answer: -2.23 ± 0.31

Question: Which “self-splicing fitness (ln)” value (30 °C) does the source give for GCUAAGCAAUAUUACGUAAC here?
Answer: -1.39 ± 0.11

Question: And the “self-splicing fitness (ln)” value (37 °C)?
Answer: -0.735 ± 0.14

Question: Which results are given for GCUCAGCAAUAUUACGACCU?
Answer: self-splicing fitness (ln) (30 °C): -0.614 ± 0.2; self-splicing fitness (ln) (37 °C): -0.401 ± 0.21

Question: What does the source list for GCUCAGCAAUAUUACGACGA?
Answer: self-splicing fitness (ln) (30 °C): -1.94 ± 0.17; self-splicing fitness (ln) (37 °C): -1.5 ± 0.18

Question: For GCUCAGCAAUAUUACGAGAC, which “self-splicing fitness (ln)” value (30 °C) is on record?
Answer: -3.42 ± 0.32

Question: What about the “self-splicing fitness (ln)” value (37 °C) of the same sequence?
Answer: -0.338 ± 0.2

Question: Which “self-splicing fitness (ln)” value (30 °C) does the source give for GCUCAGCAAUAUUACGAGAG here?
Answer: -1.03 ± 0.14

Question: And the “self-splicing fitness (ln)” value (37 °C)?
Answer: -0.875 ± 0.14

Question: Which “self-splicing fitness (ln)” value (30 °C) does the source give for GCUCAGCAAUAUUACGAGCU here?
Answer: -1.77 ± 0.2

Question: And the “self-splicing fitness (ln)” value (37 °C)?
Answer: -2.27 ± 0.35

Question: Which “self-splicing fitness (ln)” value (30 °C) does the source give for GCUCAGCAAUAUUACGAGGG here?
Answer: -2.38 ± 0.16

Question: And the “self-splicing fitness (ln)” value (37 °C)?
Answer: -2.57 ± 0.25

Question: For GCUCAGCAAUAUUACGAGUU, which “self-splicing fitness (ln)” value (30 °C) is on record?
Answer: -1.85 ± 0.079

Question: What about the “self-splicing fitness (ln)” value (37 °C) of the same sequence?
Answer: -0.858 ± 0.09

Question: Which “self-splicing fitness (ln)” value (30 °C) does the source give for GCUCAGCAAUAUUACGAUGG here?
Answer: -1.05 ± 0.11

Question: And the “self-splicing fitness (ln)” value (37 °C)?
Answer: 0.368 ± 0.13

Question: For GCUCAGCAAUAUUACGCACG, which “self-splicing fitness (ln)” value (30 °C) is on record?
Answer: -3.19 ± 0.31

Question: And the “self-splicing fitness (ln)” value (37 °C)?
Answer: -1.02 ± 0.24

Question: For GCUCAGCAAUAUUACGCGAC, which “self-splicing fitness (ln)” value (30 °C) is on record?
Answer: -3.49 ± 0.3

Question: What about the “self-splicing fitness (ln)” value (37 °C) of the same sequence?
Answer: 0.167 ± 0.16

Question: With GCUCAGCAAUAUUACGCGCA as the sequence, how does the “self-splicing fitness (ln)” value (30 °C) read?
Answer: -1.77 ± 0.13

Question: What about the “self-splicing fitness (ln)” value (37 °C) of the same sequence?
Answer: -0.106 ± 0.13

Question: What does the source list for GCUCAGCAAUAUUACGCGCC?
Answer: self-splicing fitness (ln) (30 °C): -2.16 ± 0.14; self-splicing fitness (ln) (37 °C): -1.92 ± 0.17

Question: Which results are given for GCUCAGCAAUAUUACGCUAC?
Answer: self-splicing fitness (ln) (30 °C): -3.26 ± 0.17; self-splicing fitness (ln) (37 °C): -2.69 ± 0.2

Question: With GCUCAGCAAUAUUACGCUGA as the sequence, how does the “self-splicing fitness (ln)” value (30 °C) read?
Answer: -2.82 ± 0.35

Question: With GCUCAGCAAUAUUACGGAAG as the sequence, how does the “self-splicing fitness (ln)” value (30 °C) read?
Answer: -2.23 ± 0.09

Question: And the “self-splicing fitness (ln)” value (37 °C)?
Answer: -0.736 ± 0.11

Question: Which results are given for GCUCAGCAAUAUUACGGCGU?
Answer: self-splicing fitness (ln) (30 °C): -0.15 ± 0.062; self-splicing fitness (ln) (37 °C): 0.324 ± 0.082

Question: Which “self-splicing fitness (ln)” value (30 °C) does the source give for GCUCAGCAAUAUUACGGGCA here?
Answer: -1.76 ± 0.17

Question: And the “self-splicing fitness (ln)” value (37 °C)?
Answer: -0.69 ± 0.17

Question: For GCUCAGCAAUAUUACGGGCU, which “self-splicing fitness (ln)” value (30 °C) is on record?
Answer: -4.72 ± 0.38

Question: And the “self-splicing fitness (ln)” value (37 °C)?
Answer: -2.63 ± 0.21
